This note sets out measurements from the RNAGym collection of RNA variant scans (doi:10.7554/elife.90254).

B1: LINE1-mini (parent)
chain: GGCAGAGCUCAACACAGCGUGGCAAAGUGGCUGUGGCUAGACUGCC

The variants in the data set derive from B1. As to the kind of experiment: self-cleavage, relative activity (ratio to wild type); higher = more cleavage; in vitro, sequencing; the parent is a self-cleaving ribozyme.
In the case of A11G A26C, the self-cleavage came to 0.03.
As for A11G A26U, the self-cleavage is 0.02.
In the case of A11G A26G, the self-cleavage amounted to 0.04.
The result for A11C G19C reads 0.08.
A11C G19A: the self-cleavage was 0.05.
For A11C G19U, the self-cleavage was found to be 0.04.
On to A11G U20A, for which the self-cleavage amounted to 0.04.
The value for A11G U20G was 0.03; that for A11G U20C was 0.03.
As to A11C C37G, the self-cleavage is 0.01.
For A11C C37U, the self-cleavage came to 0.02.
A11C C37A: the self-cleavage is 0.02.
Turning to C10U G44C, the self-cleavage was 0.16.
Consider C10U G44A, for which the self-cleavage worked out at 0.15.
Turning to C10U G44U, the self-cleavage amounted to 0.13.
In the case of A11C U32A, the self-cleavage was 0.04.
The result for A11C U32C reads 0.04.
The value for A11C U32G was 0.03.
Regarding A11C G44A, the self-cleavage worked out at 0.06.
For the variant A11C G44U, the self-cleavage turned out to be 0.03.
For A11G A24U, the self-cleavage was determined as 0.02.
The value for A11G A24G was 0.02.
The result for A11G A24C reads 0.03.
The value for A11C G21C was 0.08; that for A11C G21A was 0.26.
With A11C G21U, the self-cleavage came out at 0.1.
A11C C23A: the self-cleavage came out at 0.07.
The value for A11C C23G was 0.06; that for A11C C23U was 0.05.
For A11C A12U, the self-cleavage is 0.03.
The value for A11C A12C was 0.02; that for A11C A12G was 0.04; that for A11G C42U was 0.01.
With A11G C42G, the self-cleavage was found to be 0.01.
The value for A11G C42A was 0.02; that for A11U A12G was 0.03; that for A11U A12C was 0.04.
The result for A11U A12U reads 0.07; that for A11C G33A, 0.04; that for A11C G33U, 0.04.
The value for A11C G33C was 0.02.
For the variant C10U U28A, the self-cleavage was found to be 0.16.
The value for C10U U28C was 0.13; that for C10U U28G was 0.23; that for A11C U38C was 0.04.
For the variant A11C U38G, the self-cleavage was found to be 0.02.
The value for A11C U38A was 0.02; that for C10U G30A was 0.54.
Regarding C10U G30C, the self-cleavage was 0.36.
Consider C10U G30U, for which the self-cleavage came out at 0.59.
Turning to A11C G30U, the self-cleavage came to 0.05.
The result for A11C G30A reads 0.08; that for A11C G30C, 0.04.
The value for A11C C18U was 0.04.
As to A11C C18G, the self-cleavage turned out to be 0.05.
The result for A11C C18A reads 0.02; that for A11C G17C, 0.02.
For the variant A11C G17U, the self-cleavage was determined as 0.03.
Consider A11C G17A, for which the self-cleavage came to 0.03.
Take C10U U34A: the self-cleavage amounted to 0.14.
The result for C10U U34G reads 0.32.
The result for C10U U34C reads 0.08; that for A11C C45U, 0.12; that for A11C C45A, 0.05.
Consider A11C C45G, for which the self-cleavage stood at 0.02.
On to C10U A14U, for which the self-cleavage came to 0.14.
For A11G G33C, the self-cleavage turned out to be 0.03.
As to A11G G33A, the self-cleavage is 0.03.
A11G G33U: the self-cleavage was determined as 0.03.
With A11C C31A, the self-cleavage was found to be 0.02.
The result for A11C C31U reads 0.03; that for A11C C31G, 0.01; that for C10U C46G, 0.32.
On to C10U C46A, for which the self-cleavage turned out to be 0.33.
The result for C10U C46U reads 0.21.
With C10U G21A, the self-cleavage stood at 0.68.
On to C10U G21U, for which the self-cleavage came to 0.33.
The result for C10U G21C reads 0.19.
The value for C10U C37A was 0.02.
The result for C10U C37G reads 0.02; that for C10U C37U, 0.02; that for A11G U32A, 0.02.
Take A11G U32C: the self-cleavage came out at 0.04.
The value for A11G U32G was 0.03.
On to C10U A41C, for which the self-cleavage turned out to be 0.03.
The value for C10U A41U was 0.16; that for C10U A41G was 0.07.
Turning to A11G G35C, the self-cleavage came to 0.02.
For the variant A11G G35U, the self-cleavage was found to be 0.03.
The result for A11G G35A reads 0.05; that for A11G G19C, 0.03; that for A11G G19A, 0.04.
For A11G G19U, the self-cleavage came to 0.02.
The result for A11U A24G reads 0.15.
The value for A11U A24U was 0.21.
The value for A11U A24C was 0.15; that for A11G G44U was 0.01.
Turning to A11G G44A, the self-cleavage worked out at 0.03.
The result for A11G G44C reads 0.03; that for A11G G30C, 0.04.
The result for A11G G30U reads 0.04; that for A11G G30A, 0.04; that for C10U C18G, 0.22.
The value for C10U C18U was 0.34; that for C10U C18A was 0.28.
As to C10U U43G, the self-cleavage worked out at 0.19.
The value for C10U U43A was 0.04; that for C10U U43C was 0.03; that for C10U C42G was 0.05.
In the case of C10U C42A, the self-cleavage was determined as 0.05.
The value for C10U C42U was 0.1.
The value for C10U C31U was 0.54; that for C10U C31A was 0.13; that for C10U C31G was 0.05.
On to A11G A41C, for which the self-cleavage worked out at 0.03.
The value for A11G A41U was 0.02; that for A11G A41G was 0.02.
The value for A11C C46A was 0.03; that for A11C C46U was 0.11; that for A11C C46G was 0.02.
The value for A11C G35U was 0.02.
As to A11C G35C, the self-cleavage stood at 0.03.
The value for A11C G35A was 0.03; that for C10U A25U was 0.48.
Turning to C10U A25C, the self-cleavage came out at 0.21.
The value for C10U A25G was 0.39; that for A11G A25G was 0.05; that for A11G A25U was 0.02.
Take A11G A25C: the self-cleavage turned out to be 0.03.
The result for A11U A25U reads 0.37; that for A11U A25C, 0.11.
The value for A11U A25G was 0.07; that for A11G G29A was 0.04.
The value for A11G G29U was 0.03.
With A11G G29C, the self-cleavage turned out to be 0.3.
The value for A11G G27C was 0.03.
Regarding A11G G27U, the self-cleavage turned out to be 0.03.
The value for A11G G27A was 0.02; that for A11G G21U was 0.03; that for A11G G21C was 0.02.
The result for A11G G21A reads 0.05; that for A11C U28A, 0.06; that for A11C U28C, 0.03.
Turning to A11C U28G, the self-cleavage amounted to 0.05.
The value for A11C U43A was 0.01; that for A11C U43C was 0.02; that for A11C U43G was 0.03.
The value for A11C A16G was 0.05.
Regarding A11C A16C, the self-cleavage stood at 0.01.
In the case of A11C A16U, the self-cleavage stood at 0.02.
The value for A11G C37U was 0.05; that for A11G C37A was 0.02; that for A11G C37G was 0.03.
The result for A11G G36A reads 0.02; that for A11G G36U, 0.02.
The result for A11G G36C reads 0.01; that for A11C C42A, 0.02; that for A11C C42G, 0.03.
On to A11C C42U, for which the self-cleavage is 0.02.
The value for A11G C31G was 0.03; that for A11G C31A was 0.02; that for A11G C31U was 0.02.
As for A11G C13A, the self-cleavage turned out to be 0.04.
The result for A11G C13U reads 0.03; that for A11G C13G, 0.02.
The value for C10U A24U was 0.48.
The value for C10U A24C was 0.11.
